What was measured:
[1] = target: cynomolgus monkey CD117 ectodomain (cynomolgus monkey); experiment: BLI (Octet), biotinylated ectodomain on SA biosensor, 1:1 global fit, bivalent Fc
[2] = target: T1, human CD117 ectodomain (human, UniProt P10721 26-524, biotinylated (BirA co-expression) where captured on streptavidin biosensors); experiment: ELISA, human CD117, bivalent Fc fusion
T1 construct: extracellular domain; also called cKIT; full length AviTagged CD117 ectodomain; not shown: C-terminal AviTag or His tag
T1 sequence (P10721 26-524): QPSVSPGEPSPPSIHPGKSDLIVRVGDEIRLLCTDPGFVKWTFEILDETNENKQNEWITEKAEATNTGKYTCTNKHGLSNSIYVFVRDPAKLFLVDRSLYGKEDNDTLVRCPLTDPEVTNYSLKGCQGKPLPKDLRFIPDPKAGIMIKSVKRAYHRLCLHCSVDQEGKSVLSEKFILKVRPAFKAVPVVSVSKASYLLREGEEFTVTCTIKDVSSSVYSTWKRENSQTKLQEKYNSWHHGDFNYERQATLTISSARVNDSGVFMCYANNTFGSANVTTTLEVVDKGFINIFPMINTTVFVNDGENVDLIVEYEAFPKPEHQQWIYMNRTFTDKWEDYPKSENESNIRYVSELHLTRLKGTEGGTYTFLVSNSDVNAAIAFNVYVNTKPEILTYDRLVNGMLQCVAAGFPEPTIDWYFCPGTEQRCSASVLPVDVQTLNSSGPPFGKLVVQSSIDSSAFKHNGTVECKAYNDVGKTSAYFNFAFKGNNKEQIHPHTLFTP

[3] = target: T1, human CD117 ectodomain; experiment: BLI (Octet), biotinylated ectodomain on SA biosensor, 1:1 global fit, bivalent Fc
Excerpt: (§1) Pre-equilibrated streptavidin biosensors (SA, from Sartorius) were coated with biotinylated CD117 ectodomain by dipping the biosensors into wells containing an optimized dilution of human or cyno CD117 ectodomain. After re-equilibrating the biosensor tips in assay buffer, the biosensors were dipped into supernatant containing the VHH antibodies to allow association between the antibodies and the CD117 ectodomain. Finally, the biosensors were dipped into the assay buffer. The VHH antibodies disassociated from the CD117 ectodomain if association occurred. The association and dissociation of each VHH antibody was characterized qualitatively to identify VHHs that could bind both human and cyno CD117 ectodomains.
(§2) For example, kinetics parameters of the top VHH antibodies for binding to human CD117 and cynomolgus monkey CD117 ectodomain were obtained from the Octet® analysis by Biolayer Interferometry as described above. A minimum of three concentrations of purified VHH antibodies were tested per ectodomain target. The Octet® software was used to perform a global kinetic fit across all concentrations using a 1:1 binding model. This allowed determination of the kinetic parameters, association rate (kₒₙ), dissociation rate (koff) and equilibrium constant (KD) for the 9 antibodies of interest. Total chi-squared (X²) was also examined to determine the goodness of fit for the software's kinetic model.

[4] = target: T2, human CD117 on cells (SKMEL-3 cells, CD34+ HSC) (human, UniProt P10721 26-976); experiment: flow cytometry, CD34+ HSC, bivalent Fc
T2 construct: whole, on cells; also called CD117 on cell surfaces; CD117+ cells
T2 sequence (P10721 26-976): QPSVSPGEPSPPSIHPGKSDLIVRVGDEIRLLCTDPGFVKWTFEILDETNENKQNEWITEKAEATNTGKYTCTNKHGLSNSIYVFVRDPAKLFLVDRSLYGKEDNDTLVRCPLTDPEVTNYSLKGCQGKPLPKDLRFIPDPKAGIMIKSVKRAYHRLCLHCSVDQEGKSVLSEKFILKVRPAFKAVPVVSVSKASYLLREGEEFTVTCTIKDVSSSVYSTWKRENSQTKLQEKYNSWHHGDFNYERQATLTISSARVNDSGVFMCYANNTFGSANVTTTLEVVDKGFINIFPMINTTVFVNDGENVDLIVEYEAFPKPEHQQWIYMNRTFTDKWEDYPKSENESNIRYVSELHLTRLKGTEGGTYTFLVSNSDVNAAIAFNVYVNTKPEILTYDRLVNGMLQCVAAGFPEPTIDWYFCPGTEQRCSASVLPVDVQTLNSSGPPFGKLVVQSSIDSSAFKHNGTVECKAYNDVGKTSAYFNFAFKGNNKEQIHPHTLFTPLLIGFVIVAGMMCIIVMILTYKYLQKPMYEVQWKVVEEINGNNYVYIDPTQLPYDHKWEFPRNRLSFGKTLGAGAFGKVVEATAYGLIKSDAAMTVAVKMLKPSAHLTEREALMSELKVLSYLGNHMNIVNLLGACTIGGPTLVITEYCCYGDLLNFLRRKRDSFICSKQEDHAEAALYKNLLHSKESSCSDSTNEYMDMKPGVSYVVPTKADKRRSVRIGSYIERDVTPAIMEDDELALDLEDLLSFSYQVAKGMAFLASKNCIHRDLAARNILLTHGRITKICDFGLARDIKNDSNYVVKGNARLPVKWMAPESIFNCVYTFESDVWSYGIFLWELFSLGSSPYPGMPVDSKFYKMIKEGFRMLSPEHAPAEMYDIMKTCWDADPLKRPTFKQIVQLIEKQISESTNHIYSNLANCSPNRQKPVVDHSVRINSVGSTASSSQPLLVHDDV

[5] = target: T2, human CD117 on cells (SKMEL-3 cells, …); experiment: flow cytometry, skMEL-3 cells, bivalent Fc
[6] = target: T3, truncated CD117 ectodomain, Domain 1 (UniProt P10721 26-112, limits assumed, biotinylated); experiment: BLI, truncated ectodomain on SA biosensor
T3 construct: domain: Domain 1; not shown: AviTag
T3 sequence (P10721 26-112 limits assumed): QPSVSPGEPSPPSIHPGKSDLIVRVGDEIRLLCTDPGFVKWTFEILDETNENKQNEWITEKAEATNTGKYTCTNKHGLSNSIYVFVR
Procedure: To identify the approximate binding epitopes of the VHH antibodies, truncated ectodomains were expressed as fusion polypeptides with an AviTag. Additionally, biotin is added to the protein during expression to allow capture of the material onto Streptavidin-coated (SA) biosensors. SA biosensors (Sartorius) were incubated with one of the truncated ectodomains. Full length CD117 ectodomain was used as a control. […] Except for P29 and P37, all others bind Domains 1-2 and Domains 1-3. Except for P37, all others bind Domains 1-4.

[7] = target: T2, human CD117 on cells (SKMEL-3 cells, …); experiment: flow cytometry, CD34+ HSC, monomeric Fc
[8] = target: T1, human CD117 ectodomain; experiment: ELISA, human CD117, monovalent Fc fusion
[9] = target: T1, human CD117 ectodomain; experiment: BLI (Octet), biotinylated ectodomain on SA biosensor, 1:1 global fit, monomeric Fc
Excerpt: as §1, §2

[10] = target: cynomolgus monkey CD117 ectodomain (cynomolgus monkey); experiment: as above
[11] = target: T2, human CD117 on cells (SKMEL-3 cells, …); experiment: flow cytometry, skMEL-3 cells, monomeric Fc

Row | Binder | Kd [1] | Kd [2] | Kd [3] | EC50 [4] | EC50 [5] | binding result [6] | other results
1 | P31 (VHH, also called P31/P55; anti-CD117 VHH P31) VHH: EVQLVESGGGLVRAGGSLRLSCAASGRTFTYDARAWFRQAPGKEREFVAAISWSGGSTYYPNSMKGRFTISRDNAKNTVYLQMNSLKPEDTAVYYCAADESFPAYYSDYALYRYWGQGTLVTVSS |  |  |  |  |  | no binding | 
2 | P-0027 (Fc fusion, Any second Fc chain without VHH is not described in the text; also called monovalent form of P27; not shown: Fc fragment) EVQLVESGGGLVRAGGSLRLSCAASGRTTFSTYWLGWFRQAPGKNREFVAAISWSAGMAYYQDSKGRFTISRDNTKNTAYLQMNSLQPEDTAVYYCAAGRFHPIRVDTALYWAQGTQVTVSS |  |  |  |  |  |  | EC50 [7]: 10 nM; Kd [8]: 1.32 nM; Kd [9]: 44.7 nM; Kd [10]: 8.11 nM; EC50 [11]: 10 nM
3 | P-0059 (Fc fusion, also called P59; bivalent form of P12; not shown: Fc fragment) QVQLVESGGGLVQAGGSLRLSCTASGDTFSSYSMGWFRQGPGKEREFVGGIRWSGGTTYYADSVKGRFTISRDNAKNTVYLQMNSLKREDTAVYYCAAVRRRWLIWQEEEYDYWGQGTLVTVSS | 0.0112 nM | 0.06 nM | 0.0446 nM | 50 nM | 50 nM |  | 
4 | P-0012 (Fc fusion, Any second Fc chain without VHH is not described in the text; also called monovalent form of P12; not shown: Fc fragment) QVQLVESGGGLVQAGGSLRLSCTASGDTFSSYSMGWFRQGPGKEREFVGGIRWSGGTTYYADSVKGRFTISRDNAKNTVYLQMNSLKREDTAVYYCAAVRRRWLIWQEEEYDYWGQGTLVTVSS |  |  |  |  |  |  | EC50 [7]: > 10 nM; Kd [8]: 1.04 nM; Kd [9]: 49.2 nM; EC50 [11]: > 10 nM
5 | P35 (VHH, also called anti-CD117 VHH P35) VHH: QVQLVESGGGLVQAGGSLRLSCAASGGTFSIYPVGWFRQAPGKQREFVAAIGWSASGTYYGDSVEGRFTVSRDNARSTVYLRMSSLKPDDTAVYYCAAASGSNWRLGAIDEYDSWGQGTQVTVSS |  |  |  |  |  | no binding | 
6 | P-0032 (Fc fusion, Any second Fc chain without VHH is not described in the text; also called monovalent form of P32; not shown: Fc fragment) QVQLVESGGGLVQAGDSLRLSCAASGRTFSSYAMGWFRQAPGKEREFVASITSSGLVAYYGDSVEARFTISRDNAKNTVYLQMDSLKPEDTAVYYCAARQYVGSGSYYLKKEGGYEYWGPGTQVTVSS |  |  |  |  |  |  | Kd [8]: 1.49 nM; Kd [9]: 1.86 nM; Kd [10]: 8.01 nM
7 | P-0057 (Fc fusion, the alignment instead labels 'P35/P57' and 'P32/P56'; also called P57; not shown: Fc fragment) QVQLVESGGGLVQAGDSLRLSCAASGRTFSSYAMGWFRQAPGKEREFVASITSSGLVAYYGDSVEARFTISRDNAKNTVYLQMDSLKPEDTAVYYCAARQYVGSGSYYLKKEGGYEYWGPGTQVTVSS | 1.7 nM | 0.21 nM | 0.00215 nM |  |  |  | 
8 | P-0010 (Fc fusion, Any second Fc chain without VHH is not described in the text; also called monovalent form of P10; not shown: Fc fragment) QVQLVESGGGLVQAGGSLRLSCVASGRTFSSYAMGWFRQGPGKEREFAAAILSNGLTTYYADSVKGRFTISRDNAKDTVYLQMNSLKPEDTANYYCAAAFTPEFRDGGIWDDASVDYWGQGTQVTVSS |  |  |  |  |  |  | EC50 [7]: 2 nM; Kd [8]: 0.28 nM; Kd [9]: 16.5 nM; Kd [10]: 54.9 nM; EC50 [11]: 2 nM
9 | P-0053 (Fc fusion, also called P53; bivalent form of P10; not shown: Fc fragment) QVQLVESGGGLVQAGGSLRLSCVASGRTFSSYAMGWFRQGPGKEREFAAAILSNGLTTYYADSVKGRFTISRDNAKDTVYLQMNSLKPEDTANYYCAAAFTPEFRDGGIWDDASVDYWGQGTQVTVSS | 0.00136 nM | 0.16 nM | < 0.001 nM | 1 nM | 1 nM |  | 
10 | P10 (VHH, also called P10/P53; anti-CD117 VHH P10) VHH: QVQLVESGGGLVQAGGSLRLSCVASGRTFSSYAMGWFRQGPGKEREFAAAILSNGLTTYYADSVKGRFTISRDNAKDTVYLQMNSLKPEDTANYYCAAAFTPEFRDGGIWDDASVDYWGQGTQVTVSS |  |  |  |  |  | no binding | 
11 | P-0058 (Fc fusion, also called P58; bivalent form of P37; not shown: Fc fragment) QVQLVESGGGLVQAGDSLRLSCAVSGRTLSNYFMAWLRQAPGKEREFVAAIHWSLGSTYYQDPVKGRFTISRDKAKNTVYLQMNTLKPEDTATYICAAGQHLSGLGGSAWSIEGDYWGQGTQVTVSS | 0.00166 nM | 0.33 nM | 0.00189 nM | 50 nM | 3 nM |  | 
12 | P-0029 (Fc fusion, Any second Fc chain without VHH is not described in the text; also called monovalent form of P29; not shown: Fc fragment) QVHLVESGGGLVQAGGSLGLSCAASGHTFSNYAMGWFRQAPGKEREFVAAISWSGGSTLYADSVKGRFTISRDNGENTVYLQMNSLKPEDTAVYYCALDSTGVYGTGYVSSRKGRYEYWGQGTLVTVSS |  |  |  |  |  |  | EC50 [7]: 50 nM; Kd [8]: 2.48 nM; Kd [9]: 37.4 nM; EC50 [11]: > 50 nM

More lines, main results first:

Row | Kd [1] | Kd [2] | Kd [3] | EC50 [4] | EC50 [5] | binding result [6] | Binder | other results
13 | 0.961 nM | 0.22 nM | 0.00124 nM | 1 nM | 1 nM |  | P-0055 (Fc fusion, also called P55; bivalent form of P31; not shown: Fc fragment) EVQLVESGGGLVRAGGSLRLSCAASGRTFTYDARAWFRQAPGKEREFVAAISWSGGSTYYPNSMKGRFTISRDNAKNTVYLQMNSLKPEDTAVYYCAADESFPAYYSDYALYRYWGQGTLVTVSS | 
14 |  |  |  |  |  | no binding | P27 (VHH, also called P27/P60; anti-CD117 VHH P27) VHH: EVQLVESGGGLVRAGGSLRLSCAASGRTTFSTYWLGWFRQAPGKNREFVAAISWSAGMAYYQDSKGRFTISRDNTKNTAYLQMNSLQPEDTAVYYCAAGRFHPIRVDTALYWAQGTQVTVSS | 
15 | 2.16 nM | 0.14 nM | 0.24 nM | 2 nM | 2 nM |  | P-0060 (Fc fusion, also called P60; bivalent form of P27; not shown: Fc fragment) EVQLVESGGGLVRAGGSLRLSCAASGRTTFSTYWLGWFRQAPGKNREFVAAISWSAGMAYYQDSKGRFTISRDNTKNTAYLQMNSLQPEDTAVYYCAAGRFHPIRVDTALYWAQGTQVTVSS | 
16 | 0.647 nM | 0.36 nM | 0.602 nM | 10 nM | 3 nM |  | P-0056 (Fc fusion, the alignment instead labels 'P35/P57' and 'P32/P56'; also called P56; not shown: Fc fragment) QVQLVESGGGLVQAGGSLRLSCAASGGTFSIYPVGWFRQAPGKQREFVAAIGWSASGTYYGDSVEGRFTVSRDNARSTVYLRMSSLKPDDTAVYYCAAASGSNWRLGAIDEYDSWGQGTQVTVSS | 
17 |  |  |  |  |  | no binding | P32 (VHH, also called anti-CD117 VHH P32) VHH: QVQLVESGGGLVQAGDSLRLSCAASGRTFSSYAMGWFRQAPGKEREFVASITSSGLVAYYGDSVEARFTISRDNAKNTVYLQMDSLKPEDTAVYYCAARQYVGSGSYYLKKEGGYEYWGPGTQVTVSS | 
18 | 19.8 nM | 0.54 nM | 0.00682 nM | > 50 nM | > 50 nM |  | P-0054 (Fc fusion, also called P54; bivalent form of P29; not shown: Fc fragment) QVHLVESGGGLVQAGGSLGLSCAASGHTFSNYAMGWFRQAPGKEREFVAAISWSGGSTLYADSVKGRFTISRDNGENTVYLQMNSLKPEDTAVYYCALDSTGVYGTGYVSSRKGRYEYWGQGTLVTVSS | 
19 | 0.0112 nM | 0.21 nM | 0.00126 nM | 2 nM | 1 nM |  | P-0072 (Fc fusion, also called P72; bivalent form of P38; not shown: Fc fragment) EVQLVESGGGLVQAGGSLRLSCAASGRTSGSYVMGWFRQAPGKEREFVAAISWSAGMTYYADSVKGRFTISRDNAKNTVYLQMNSLKPEDTAVYYCAADQRGVPAYYSDYALYDYWGQGTQVTVSS | 
20 |  |  |  |  |  | no binding | P38 (VHH, also called P38/P72; anti-CD117 VHH P38) VHH: EVQLVESGGGLVQAGGSLRLSCAASGRTSGSYVMGWFRQAPGKEREFVAAISWSAGMTYYADSVKGRFTISRDNAKNTVYLQMNSLKPEDTAVYYCAADQRGVPAYYSDYALYDYWGQGTQVTVSS | 

Reference: patent publication US20260137802A1 (CRISPR THERAPEUTICS, published 2026)
